B1: Flag-CNK^2–549 [Drosophila] / GST-HYP [Drosophila] (parent complex)
chain 1: AYINIAEWTPDQVTDWIKGLDESMKGYLYEFSKQEIGGRALLNIRPYELENLGMLRIGHQEIVLEAVENLRNFHYHLKNDNLQFMALHVATAAKNLHRELARNHAESTKIDTRILHDITRTIATLKPLVGSLERTPFRKQEMYREYCGNVLKCGLELATIAHRDRFALQPVPAIRQSAERLENLANFVIQDISDPMVLQPASLNLVTLKKRESELGFNIESSYNGIHRVTDIKYNSPAHNSGKIEDGDEIVQINYQTVVGWQHRTVLEHLREALPDVVLTVKKRPKHTKMFGQIYMQPYRLPSKKRNMAARWAAQMPSPRAAFLTLDTEQLATGGTGSAVPDPSKSLSSEKREVLTKANPVSSASDSDSSCSDIPTPTDPKLAAREIRLYYPKPRALLQRRNTICGCEYLSLKNSDLVVPSWHERKPGIGSPTNCDPGSPSIRDKSISFGYGLEMAARPTTCIGIAGDTSTDKARRMFHEARKLKQLTEDSQREFLVDRYKPGVSKVVRFDAKEDYVMKNEKFICNVENTILETFEPIPFADEGDEDA
chain 2: MGEETINSTQNKTRTKTTRPKAVYLWTVSDVLKWYRRHCGEYTQYEQLFAQHDITGRALLRITDSSLQRMGVTDNRDREAIWREIVKQRLKTDIMEIRDMERLNIY

Variants of: B1
Assay: GST pull-down, immunoblot quantification; S2 cells; GST-HYP + RRKM co-expressed; anti-Flag (CNK) blot; parent: 1

Row | ratio to parent | Variant
1 | 0.68 | chain 1 AYINIAEWTPDQVTDWIKGLDESMKGYLYEFSKQEIGGRALLNIRPYELENLGMLRIGHQEIVLEAVENLRNFHYHLKNDNLQFMALHVATAAKNLHRELARNHAESTKIDTRILHDITRTIATLKPLVGSLERTPFRKQEMYREYCGNVLKCGLELATIAHRDRFALQPVPAIRQSAERLENLANFVIQDISDPMVLQPASLNLVTLKKRESELGFNIESSYNGIHRVTDIKYNSPAHNSGKIEDGDEIRQINYQTVVGWQHRTVLEHLREALPDVVLTVKKRPKHTKMFGQIYMQPYRLPSKKRNMAARWAAQMPSPRAAFLTLDTEQLATGGTGSAVPDPSKSLSSEKREVLTKANPVSSASDSDSSCSDIPTPTDPKLAAREIRLYYPKPRALLQRRNTICGCEYLSLKNSDLVVPSWHERKPGIGSPTNCDPGSPSIRDKSISFGYGLEMAARPTTCIGIAGDTSTDKARRMFHEARKLKQLTEDSQREFLVDRYKPGVSKVVRFDAKEDYVMKNEKFICNVENTILETFEPIPFADEGDEDA [chain 1 V251R]
2 | 0.61 | chain 1 AYINIAEWTPDQVTDWIKGLDESMKGYLYEFSKQEIGGRALLNIRPYELENLGMLRIGHQEIVLEAVENLRNRHYHLKNDNLQFMALHVATAAKNLHRELARNHAESTKIDTRILHDITRTIATLKPLVGSLERTPFRKQEMYREYCGNVLKCGLELATIAHRDRFALQPVPAIRQSAERLENLANFVIQDISDPMVLQPASLNLVTLKKRESELGFNIESSYNGIHRVTDIKYNSPAHNSGKIEDGDEIRQINYQTVVGWQHRTVLEHLREALPDVVLTVKKRPKHTKMFGQIYMQPYRLPSKKRNMAARWAAQMPSPRAAFLTLDTEQLATGGTGSAVPDPSKSLSSEKREVLTKANPVSSASDSDSSCSDIPTPTDPKLAAREIRLYYPKPRALLQRRNTICGCEYLSLKNSDLVVPSWHERKPGIGSPTNCDPGSPSIRDKSISFGYGLEMAARPTTCIGIAGDTSTDKARRMFHEARKLKQLTEDSQREFLVDRYKPGVSKVVRFDAKEDYVMKNEKFICNVENTILETFEPIPFADEGDEDA [chain 1 F73R, chain 1 V251R]
3 | 0.87 | chain 1 AYINIAEWTPDQVTDWIKGLDESMKGYLYEFSKQEIGGRALLNIRPYELENLGMLRIGHQEIVLEFVENLRNFHYHLKNDNLQFMALHVATAAKNLHRELARNHAESTKIDTRILHDITRTIATLKPLVGSLERTPFRKQEMYREYCGNVLKCGLELATIAHRDRFALQPVPAIRQSAERLENLANFVIQDISDPMVLQPASLNLVTLKKRESELGFNIESSYNGIHRVTDIKYNSPAHNSGKIEDGDEIVQINYQTVVGWQHRTVLEHLREALPDVVLTVKKRPKHTKMFGQIYMQPYRLPSKKRNMAARWAAQMPSPRAAFLTLDTEQLATGGTGSAVPDPSKSLSSEKREVLTKANPVSSASDSDSSCSDIPTPTDPKLAAREIRLYYPKPRALLQRRNTICGCEYLSLKNSDLVVPSWHERKPGIGSPTNCDPGSPSIRDKSISFGYGLEMAARPTTCIGIAGDTSTDKARRMFHEARKLKQLTEDSQREFLVDRYKPGVSKVVRFDAKEDYVMKNEKFICNVENTILETFEPIPFADEGDEDA [chain 1 A66F]

Variants of: B1
Assay: GST pull-down, immunoblot quantification; S2 cells; only Flag-CNK2–549 and GST-HYP co-expressed; anti-Flag blot; parent: 1

Row | ratio to parent | Variant
4 | 0.07 | chain 1 AYINIAEWTPDQVTDWIKGLDESMKGYLYEFSKQEIGGRALLNIRPYELENLGMLRIGHQEIVLEAVENLRNFHYHLKNDNLQFMALHVATAAKNLHRELARNHAESTKIDTRILHDITRTIATLKPLVGSLERTPFRKQEMYREYCGNVLKCGLELATIAHRDRFALQPVPAIRQSAERLENLANFVIQDISDPMVLQPASLNLVTLKKRESELGFNIESSYNGIHRVTDIKYNSPAHNSGKIEDGDEIRQINYQTVVGWQHRTVLEHLREALPDVVLTVKKRPKHTKMFGQIYMQPYRLPSKKRNMAARWAAQMPSPRAAFLTLDTEQLATGGTGSAVPDPSKSLSSEKREVLTKANPVSSASDSDSSCSDIPTPTDPKLAAREIRLYYPKPRALLQRRNTICGCEYLSLKNSDLVVPSWHERKPGIGSPTNCDPGSPSIRDKSISFGYGLEMAARPTTCIGIAGDTSTDKARRMFHEARKLKQLTEDSQREFLVDRYKPGVSKVVRFDAKEDYVMKNEKFICNVENTILETFEPIPFADEGDEDA [chain 1 V251R]
5 | 0.04 | chain 1 AYINIAEWTPDQVTDWIKGLDESMKGYLYEFSKQEIGGRALLNIRPYELENLGMLRIGHQEIVLEAVENLRNRHYHLKNDNLQFMALHVATAAKNLHRELARNHAESTKIDTRILHDITRTIATLKPLVGSLERTPFRKQEMYREYCGNVLKCGLELATIAHRDRFALQPVPAIRQSAERLENLANFVIQDISDPMVLQPASLNLVTLKKRESELGFNIESSYNGIHRVTDIKYNSPAHNSGKIEDGDEIRQINYQTVVGWQHRTVLEHLREALPDVVLTVKKRPKHTKMFGQIYMQPYRLPSKKRNMAARWAAQMPSPRAAFLTLDTEQLATGGTGSAVPDPSKSLSSEKREVLTKANPVSSASDSDSSCSDIPTPTDPKLAAREIRLYYPKPRALLQRRNTICGCEYLSLKNSDLVVPSWHERKPGIGSPTNCDPGSPSIRDKSISFGYGLEMAARPTTCIGIAGDTSTDKARRMFHEARKLKQLTEDSQREFLVDRYKPGVSKVVRFDAKEDYVMKNEKFICNVENTILETFEPIPFADEGDEDA [chain 1 F73R, chain 1 V251R]
6 | 0.29 | chain 1 AYINIAEWTPDQVTDWIKGLDESMKGYLYEFSKQEIGGRALLNIRPYELENLGMLRIGHQEIVLEFVENLRNFHYHLKNDNLQFMALHVATAAKNLHRELARNHAESTKIDTRILHDITRTIATLKPLVGSLERTPFRKQEMYREYCGNVLKCGLELATIAHRDRFALQPVPAIRQSAERLENLANFVIQDISDPMVLQPASLNLVTLKKRESELGFNIESSYNGIHRVTDIKYNSPAHNSGKIEDGDEIVQINYQTVVGWQHRTVLEHLREALPDVVLTVKKRPKHTKMFGQIYMQPYRLPSKKRNMAARWAAQMPSPRAAFLTLDTEQLATGGTGSAVPDPSKSLSSEKREVLTKANPVSSASDSDSSCSDIPTPTDPKLAAREIRLYYPKPRALLQRRNTICGCEYLSLKNSDLVVPSWHERKPGIGSPTNCDPGSPSIRDKSISFGYGLEMAARPTTCIGIAGDTSTDKARRMFHEARKLKQLTEDSQREFLVDRYKPGVSKVVRFDAKEDYVMKNEKFICNVENTILETFEPIPFADEGDEDA [chain 1 A66F]

From publication PMC11257983 (2024)
